Data published in US12331334B2.

Molecular target: human C3 FRET peptide

| Activity (nM EDANS/min/µL sample), expi293 supernatant on 40 µM human C3 FRET peptide (nM EDANS/min/µL sample) | Substance |
| --- | --- |
| 0.1 | WT uPA with C122S - HSA (No PP) (enzyme) |
| 0 | WT uPA with C122S-Fc (No PP) (Fc fusion) |
